In patent US20260242478A1 (published 2026):
Where no end group is shown, it is not given here.

B1: Phage-2863 (peptide)
peptide: FNVMCRPAWMCDFL
modifications: cysteine pairing not given here; also: fused to pIII of display bacteriophage, linker and sequence not given here
notes: Clonal phage of the Peptide-180 library; not shown: pIII filament protein of the display bacteriophage
B2: Phage-2858 (peptide)
peptide: TQAMCKPAWMCQGF
modifications: cysteine pairing not given here; also: fused to pIII of display bacteriophage, linker and sequence not given here
notes: as for B1
B3: Phage-2862 (peptide)
peptide: TGAYCVPQWMCSGF
modifications: cysteine pairing not given here; also: fused to phage pIII, linker not given here
notes: as for B1
B4: Phage-2855 (peptide)
peptide: WEMKCIPEWMCRGF
modifications: cysteine pairing not given here; also: fused to pIII of display bacteriophage, linker and sequence not given here
notes: as for B1
B5: Phage-2854 (peptide)
peptide: VHIMCKPAWMCLGF
modifications: cysteine pairing not given here; also: fused to pIII of display bacteriophage, linker and sequence not given here
notes: Clonal phage of the Peptide-180 library; the cell for position 10 (c11) is missing in the printed row; not shown: pIII filament protein of the display bacteriophage
B6: Phage-2861 (peptide)
peptide: WDRLCIPAWMCSGF
modifications: cysteine pairing not given here; also: fused to pIII of display bacteriophage, linker and sequence not given here
notes: as for B1
B7: Phage-2859 (peptide)
peptide: WEFVCKPEWMCTGF
modifications: cysteine pairing not given here; also: fused to phage pIII, linker not given here
notes: as for B1
B8: Phage-2856 (peptide)
peptide: VQRMCEPSWMCFGF
modifications: cysteine pairing not given here; also: fused to pIII of display bacteriophage, linker and sequence not given here
notes: as for B1
B9: Phage-2857 (peptide)
peptide: LERACVPSWMCTGF
modifications: cysteine pairing not given here; also: fused to pIII of display bacteriophage, linker and sequence not given here
notes: as for B1
B10: Phage-2860 (peptide)
peptide: EWILCKPAWMCDGL
modifications: cysteine pairing not given here; also: fused to pIII of display bacteriophage, linker and sequence not given here
notes: as for B1
B11: Phage-2891 (peptide)
peptide: EAHICRPLWMCTGF
notes: tested as crude clonal phage supernatant
B12: Phage-2885 (peptide)
peptide: NPPYCVPAWMCAGF
notes: as for B11
B13: Phage-2889 (peptide)
peptide: MASLCVPSWMCTGF
notes: as for B11
B14: Phage-2890 (peptide)
peptide: QEVYCKPAWMCDGF
notes: as for B11
B15: Phage-2880 (peptide)
peptide: MHLMCKPAWMCAGF
notes: as for B11
B16: Phage-2886 (peptide)
peptide: DGIKCVPRWMCDGF
notes: as for B11
B17: Phage-2881 (peptide)
peptide: GDPVCKPTWMCLGF
notes: as for B11
B18: Phage-2887 (peptide)
peptide: SLPLCKPLWMCEGF
notes: as for B11
B19: Phage-2884 (peptide)
peptide: EFMRCTPPWMCLGF
notes: as for B11
B20: Phage-2882 (peptide)
peptide: PERMCIPSWMCEVL
notes: as for B11
B21: Phage-2879 (peptide)
peptide: VTVICKPQWMCVGF
notes: as for B11
B22: Phage-2878 (peptide)
peptide: ESARCVPMWMCNGF
notes: as for B11
B23: Phage-2888 (peptide)
peptide: VSKVCKPAWMCEGL
notes: as for B11
B24: Phage-2883 (peptide)
peptide: WDAKCVPRWMCDGF
notes: as for B11

These binders were tested against T1, PSMA Fab (assay: clonal phage ELISA; biotinylated PSMA Fab on neutravidin plate, anti-M13 HRP detection).
T1 construct: also called Anti-PSMA Fab; 006 PSMA Fab
Protocol: (§1) Clonal phage were harvested as crude supernatants and screened via standard ELISAs. […] Prior to the addition of clonal phage. wells were incubated with blocking buffer and PSMA antigen or blocking buffer alone. Without washing or aspirating, clonal phage supernatants were then added to the wells and incubated for a short time. Wells were then washed followed by detection of bound phage using a horse radish conjugated anti-M13 antibody.

| Binder | Phage binding ELISA signal, Anti-PSMA Fab |
| --- | --- |
| B1 | 2.42 |
| B2 | 2.44 |
| B3 | 2.43 |
| B4 | 2.44 |
| B5 | 2.44 |
| B6 | 2.43 |
| B7 | 2.43 |
| B8 | 2.44 |
| B9 | 2.44 |
| B10 | 2.43 |

Each binder was assayed against T1, PSMA Fab (assay: clonal phage ELISA on captured PSMA Fab; wells pre-incubated with PSMA antigen as competitor).
Protocol: as §1

| Binder | Phage binding ELISA signal (Anti-PSMA Fab, with competitor) |
| --- | --- |
| B1 | 0.158 |
| B2 | 0.0783 |
| B3 | 0.112 |
| B4 | 0.139 |
| B5 | 0.246 |
| B6 | 0.197 |
| B7 | 0.102 |
| B8 | 0.0783 |
| B9 | 0.0938 |
| B10 | 0.0639 |

Each binder was assayed against T2, PSMA Fab (assay: clonal phage ELISA on biotinylated PSMA Fab captured on neutravidin plates, anti-M13 HRP detection;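 note: crude clonal phage supernatants tested, before phage were added, wells were pretreated with PSMA antigen in blocking buffer or with blocking buffer only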).
T2 construct: Biotinylated and captured on neutravidin coated plates in the phage ELISA; also called Anti-PSMA Fab; 006 PSMA Fab
Protocol: as §1

| Binder | Phage binding ELISA signal, Anti-PSMA Fab |
| --- | --- |
| ETLRCEPMWMCMGF [Phage-2874] | 2.39 |
| EPIRCVPQWMCVGF [Phage-2868] | 2.4 |
| SEFWCVPAWMCEGF [Phage-2870] | 2.4 |
| DDIRCKPAWMCMGF [Phage-2876] | 2.38 |
| VLPMCSPPWMCIGL [Phage-2867] | 2.4 |
| TLSMCVPTWMCTGF [Phage-2877] | 2.38 |
| IETWCVPRWMCEGF [Phage-2864] | 2.42 |
| WPQLCVPMWMCAGL [Phage-2869] | 2.4 |
| IIRHCVPMWMCQGF [Phage-2873] | 2.39 |
| SMPRCVPVWMCEGF [Phage-2875] | 2.39 |
| MSPLCKPVWMCAGF (cysteine pairing not given here; also: displayed on phage by fusion to pIII) [Phage-2865] | 2.4 |
| IDILCRPLWMCNGM [Phage-2872] | 2.39 |
| TSPACVPSWMCVGF [Phage-2866] | 2.4 |
| LERVCKPLWMCTGL [Phage-2871] | 2.39 |

The binders below were run against T3, 006 PSMA Fab (assay: phage ELISA; biotinylated PSMA Fab on neutravidin plate, blocking buffer alone, anti-M13-HRP detection).
T3 construct: also called Anti-PSMA Fab
Protocol: as §1

| Binder | Phage binding ELISA signal, Anti-PSMA Fab |
| --- | --- |
| B11 | 2.36 |
| B12 | 2.37 |
| B13 | 2.36 |
| B14 | 2.36 |
| B15 | 2.38 |
| B16 | 2.36 |
| B17 | 2.38 |
| B18 | 2.36 |
| B19 | 2.37 |
| B20 | 2.38 |
| B21 | 2.38 |
| B22 | 2.38 |
| B23 | 2.36 |
| B24 | 2.37 |

The binders below were run against T2, PSMA Fab (assay: clonal phage ELISA on captured PSMA Fab pre-incubated with PSMA antigen as competitor, anti-M13 HRP detection;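 note: crude clonal phage supernatants tested by ELISA, wells first treated with blocking buffer plus PSMA antigen, bound phage read out via HRP-linked anti-M13 antibody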).
Protocol: as §1

| Binder | Phage binding ELISA signal, Anti-PSMA Fab with PSMA antigen |
| --- | --- |
| ETLRCEPMWMCMGF [Phage-2874] | 0.0975 |
| EPIRCVPQWMCVGF [Phage-2868] | 0.0918 |
| SEFWCVPAWMCEGF [Phage-2870] | 0.0842 |
| DDIRCKPAWMCMGF [Phage-2876] | 0.127 |
| VLPMCSPPWMCIGL [Phage-2867] | 0.0912 |
| TLSMCVPTWMCTGF [Phage-2877] | 0.115 |
| IETWCVPRWMCEGF [Phage-2864] | 0.234 |
| WPQLCVPMWMCAGL [Phage-2869] | 0.148 |
| IIRHCVPMWMCQGF [Phage-2873] | 0.224 |
| SMPRCVPVWMCEGF [Phage-2875] | 0.107 |
| MSPLCKPVWMCAGF (cysteine pairing not given here; also: displayed on phage by fusion to pIII) [Phage-2865] | 0.0828 |
| IDILCRPLWMCNGM [Phage-2872] | 0.113 |
| TSPACVPSWMCVGF [Phage-2866] | 0.071 |
| LERVCKPLWMCTGL [Phage-2871] | 0.134 |

What follows are binders tested against T3, 006 PSMA Fab (assay: phage ELISA; biotinylated PSMA Fab on neutravidin plate, wells pre-incubated with PSMA antigen as competitor, anti-M13-HRP detection).
Protocol: as §1

| Binder | Phage binding ELISA signal, Anti-PSMA Fab in presence of PSMA antigen |
| --- | --- |
| B11 | 0.0899 |
| B12 | 0.0765 |
| B13 | 0.0629 |
| B14 | 0.104 |
| B15 | 0.118 |
| B16 | 0.146 |
| B17 | 0.09 |
| B18 | 0.0872 |
| B19 | 0.12 |
| B20 | 0.1 |
| B21 | 0.0878 |
| B22 | 0.0714 |
| B23 | 0.104 |
| B24 | 0.125 |
